{"source": "patent US20020115216A1", "target": "asialoglycoprotein receptor (UniProt P34927)", "sequence (P34927 whole entry, chain 1 of 2)": "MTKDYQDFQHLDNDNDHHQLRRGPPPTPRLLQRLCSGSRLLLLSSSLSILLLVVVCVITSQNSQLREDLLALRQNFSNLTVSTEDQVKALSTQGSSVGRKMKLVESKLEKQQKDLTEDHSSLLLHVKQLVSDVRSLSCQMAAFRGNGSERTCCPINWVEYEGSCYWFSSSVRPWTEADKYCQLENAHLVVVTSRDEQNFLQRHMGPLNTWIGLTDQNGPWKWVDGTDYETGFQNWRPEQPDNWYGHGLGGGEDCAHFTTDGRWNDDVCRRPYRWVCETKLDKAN", "sequence (P24721 whole entry, chain 2 of 2, further chain)": "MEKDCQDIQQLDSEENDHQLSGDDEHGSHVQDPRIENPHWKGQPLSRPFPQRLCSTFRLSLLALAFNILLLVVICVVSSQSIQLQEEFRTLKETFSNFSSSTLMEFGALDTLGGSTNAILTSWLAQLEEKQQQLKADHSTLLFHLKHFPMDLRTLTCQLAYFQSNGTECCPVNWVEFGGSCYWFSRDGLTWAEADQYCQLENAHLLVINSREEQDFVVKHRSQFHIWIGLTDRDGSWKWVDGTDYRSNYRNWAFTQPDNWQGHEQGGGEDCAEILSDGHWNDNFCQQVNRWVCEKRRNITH", "assay": "cell-based or functional assay"}
{"substance": "asialofetuin (from UniProt P12763 19-359) (ligand)", "values": [{"measurement": "inhibition of uptake/expression of the cis pT/GFP/SB in the liver (confocal microscopy of GFP, mice coadministered asialofetuin)", "value": "> 80", "unit": "%"}]}
